This passage reports stoichiometry N results from PMC6173284.

In general, stoichiometry N refers to the number of molecules, sites or subunits per partner or assembly.

The assay deals with His-tagged Vps5 dimer from Chaetomium thermophilum (Chaetomium thermophilum). The assay can be described thus: SEC-MALS. (In general: SEC sorts molecules by how far they enter the pores of the column.)

For “His-tagged Vps5 dimer from Chaetomium thermophilum (natural protein)”, the stoichiometry N is 2.
